Laboratory results from publication PMC4930479.

Key:
VEGF165 (human) = assay: SEC-MALS; inhibitor and ligand mixed at molar ratios 5:1 to 1:5 (20 µM and 100 µM), 12 h at ambient temperature; free proteins injected separately; Superose 12 10/300 GL, 10 mM phosphate, 500 mM NaCl, pH 7.0, 0.3 mL/min
PlGF-2 = biological target: T1, PlGF-2 (UniProt P49763); assay: as above
T1 sequence: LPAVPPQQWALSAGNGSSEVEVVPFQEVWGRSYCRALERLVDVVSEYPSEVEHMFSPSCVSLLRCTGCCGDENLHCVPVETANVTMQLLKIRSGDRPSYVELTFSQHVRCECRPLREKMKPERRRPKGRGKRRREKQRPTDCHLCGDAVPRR

FcγRI (human) = FcγRI (human) (UniProt P12314); assay: SPR; His-tagged or myc-myc His-tagged Fcγ receptors captured (about 200 RU) on anti-histidine antibody on a CM4 or CM5 chip; inhibitor with or without equimolar VEGF165 or VEGF121 injected (1 µM in Table 1); Biacore 3000, 25 °C, HBS-T pH 7.4; only kd and t1/2 calculated
FcγRIIIb (human) = FcγRIIIb (human) (UniProt O75015); assay: as above
FcγRIIIa (176F) (human) = FcγRIIIa (176F) (human) (UniProt P08637); assay: as above
FcγRIIIa (176V) (human) = FcγRIIIa (176V) (human) (UniProt P08637); assay: as above
[1] = biological target: FcγRIIa (131R allele) (human) (UniProt P12318); assay: as above
FcγRIIb (human) = FcγRIIb (human) (UniProt P31994); assay: as above
FcγRIIb (human), sequence (P31994 43-217): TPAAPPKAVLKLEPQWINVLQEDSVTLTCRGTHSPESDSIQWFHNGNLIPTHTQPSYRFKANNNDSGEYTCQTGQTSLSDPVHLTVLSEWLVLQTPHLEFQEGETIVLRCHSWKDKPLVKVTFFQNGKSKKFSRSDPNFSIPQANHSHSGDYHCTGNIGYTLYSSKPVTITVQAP

FcγRIIIb (human), sequence (O75015 17-200): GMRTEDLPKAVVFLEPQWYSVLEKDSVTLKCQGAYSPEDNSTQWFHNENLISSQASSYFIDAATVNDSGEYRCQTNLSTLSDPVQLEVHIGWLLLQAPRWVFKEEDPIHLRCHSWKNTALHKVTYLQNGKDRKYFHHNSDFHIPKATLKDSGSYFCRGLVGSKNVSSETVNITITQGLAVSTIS
FcγRIIIa (176F) (human), sequence (P08637 17-254): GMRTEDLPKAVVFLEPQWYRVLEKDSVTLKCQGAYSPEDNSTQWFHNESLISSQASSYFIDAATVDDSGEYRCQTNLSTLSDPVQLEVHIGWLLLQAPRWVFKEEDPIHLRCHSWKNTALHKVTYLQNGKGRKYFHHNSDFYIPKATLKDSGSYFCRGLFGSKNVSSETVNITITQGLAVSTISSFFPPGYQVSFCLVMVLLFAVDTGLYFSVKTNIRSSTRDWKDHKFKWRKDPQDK
FcγRIIIa (176V) (human), sequence (P08637 17-254 F176V): as the sequence (P08637 17-254) above, with F160V counted along it
aflibercept (Fc fusion), sequence (chain): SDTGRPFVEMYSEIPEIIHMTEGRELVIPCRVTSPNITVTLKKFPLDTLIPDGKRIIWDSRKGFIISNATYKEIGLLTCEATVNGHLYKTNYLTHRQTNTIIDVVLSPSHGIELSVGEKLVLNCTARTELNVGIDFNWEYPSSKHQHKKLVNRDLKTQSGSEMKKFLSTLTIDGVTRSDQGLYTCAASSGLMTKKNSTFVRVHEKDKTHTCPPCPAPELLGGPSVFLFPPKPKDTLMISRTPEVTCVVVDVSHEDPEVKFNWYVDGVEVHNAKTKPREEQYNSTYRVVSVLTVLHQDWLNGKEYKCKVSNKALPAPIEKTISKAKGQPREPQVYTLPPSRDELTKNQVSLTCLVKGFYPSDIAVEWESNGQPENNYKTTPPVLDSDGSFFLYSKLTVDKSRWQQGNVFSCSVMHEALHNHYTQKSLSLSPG
FcγRI (human), sequence (P12314 16-292): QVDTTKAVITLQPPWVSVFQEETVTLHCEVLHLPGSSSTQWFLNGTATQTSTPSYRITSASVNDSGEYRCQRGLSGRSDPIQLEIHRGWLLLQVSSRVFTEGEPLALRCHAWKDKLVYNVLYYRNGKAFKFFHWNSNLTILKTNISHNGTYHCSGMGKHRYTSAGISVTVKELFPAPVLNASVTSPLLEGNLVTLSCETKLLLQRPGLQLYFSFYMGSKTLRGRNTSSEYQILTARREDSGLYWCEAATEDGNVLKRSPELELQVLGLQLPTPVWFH

Row | Substance | stoichiometry N (VEGF165 (human)) | stoichiometry N (aflibercept per PlGF-2 dimer) (PlGF-2) | stoichiometry N (aflibercept per VEGF165 dimer) (VEGF165 (human)) | t1/2 (FcγRI (human)) [min] | t1/2 (FcγRIIIb (human)) [min] | t1/2 (FcγRIIIa (176F) (human)) [min] | t1/2 (FcγRIIIa (176V) (human)) [min] | t1/2 [1] [min] | koff (FcγRI (human)) [s⁻¹] | koff (FcγRIIb (human)) [s⁻¹] | t1/2 (FcγRIIb (human)) [min] | koff (FcγRIIIb (human)) [s⁻¹] | koff (FcγRIIIa (176F) (human)) [s⁻¹] | koff [1] [s⁻¹] | koff (FcγRIIIa (176V) (human)) [s⁻¹]
1 | VEGF165 (ligand) | 2 | – | – | – | – | – | – | – | – | – | – | – | – | – | –
2 | aflibercept (Fc fusion) | – | 1 | 1 | 16 | 0.0667 | 0.233 | 1.52 | – | – | – | – | – | – | – | –
3 | aflibercept:VEGF121 complex | – | – | – | 16.9 | 0.0833 | 0.317 | 2.02 | 0.0667 | – | – | – | – | – | – | –
4 | aflibercept:VEGF165 complex | – | – | – | 18.7 | 0.0667 | 0.3 | 1.88 | 0.05 | 0.000617 | 0.174 | 0.0667 | 0.164 | 0.0392 | 0.205 | 0.00614
5 | bevacizumab (antibody) | – | – | – | 15.4 | 0.0667 | 0.183 | 1.43 | 0.1 | 0.000749 | 0.179 | 0.0667 | 0.196 | 0.0626 | 0.111 | 0.00803
6 | bevacizumab:VEGF121 complex | – | – | – | 57 | 4.42 | – | – | – | – | – | 6.33 | – | – | – | –
7 | bevacizumab:VEGF165 complex | – | – | – | 47.9 | 7.72 | – | – | – | – | – | 11.8 | – | – | – | –
